Experiment in all cases: SPR
In general terms: In SPR one partner is held on a chip, and binding of the other changes the refractive index at the surface.

Assay [1] addresses Horse ACE2-huFc (soluble horse ACE2 ectodomain, human IgG1 Fc fusion) (horse (Equus caballus)) (UniProt F6V9L3).
The target is the same in assay [2]. The source holds these as a separate data set.
In assay [3] the target is Pangolin ACE2-huFc (soluble pangolin ACE2 ectodomain, human IgG1 Fc fusion) (pangolin (Manis javanica)).

pKd: −log10 of the molar value. Read-outs that look alike come from different tables or passages of the source.

“SARS-CoV-2 WHU01 Spike RBD, monomeric (from UniProt P0DTC2) (domain or fragment)”: the pKd was 7.17 in assay [1], 7.05 in assay [2] and 7.17 in assay [3].

As usually defined, the pKd is −log10 of the Kd, conventionally taken in molar units. Lower therefore signals a high Kd.

These data come from publication PMC10715038.
